# Laboratory results reported in the nanobody polyreactivity screen of Harvey et al. (2022).
# Assay: yeast display, Sf9 membrane polyspecificity reagent, FACS + sequencing; frameworks hold sequencing errors
# In short: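 In a synthetic yeast display library (Saccharomyces cerevisiae BJ5465), nanobody expression was induced with galactose for 36–48 hours. FACS gates were set low and high (top ~1%) using anti-HA fluorescence for expression and streptavidin fluorescence for binding of the Sf9 membrane reagent. Each polyreactivity label is drawn from the gate of origin.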
row,Sequence,polyreactivity (PSR sort gate)
1,QVQLVESGGGLVQAGGSLRLSCATSGSIFYRYAMGWYRQAPGKEREFVAAIRWRGGSTYYADSVKGRFTISRDNAKNTVYLQMNSLKPEDTAVYYCAAPTVQSYNYWGQGTQVTVSS,high polyreactivity
2,QVQLVESGGGLVQAGGSLRLSCAVSGRIFRRNVMGWSRPAPGKERALVAGSSYSGDSTYYADSVKGRFTISRDNAKNTVYLQMNSLKPEDTAVYYCAAALAHYRGMYYWGQGTQVTVSS,low polyreactivity
3,QVQLVESGGGLVQAGGSLRLSCAVSGRIFRRNVMGWYRQAPGKERELVAGSSYSGDSTYYADSVKGRFTISRDNAKNTVYLQMNRLKPEDTAVYYCAAALAHYRGMYYWGQGTQVTVSS,high polyreactivity
4,QVQLVESGGGLVQAGGSLRLSCCASGFTFIVYSMGWYRQSPGKERELVAAITQSGGSTFYADSVKGRFTISRDNAKNTVYLQMNSLKPEDTAVYYCNAYRKFRYWGQGTQVTVSS,low polyreactivity
5,QVQLVESGGGLVQAGGSLRLSCCASGRTFLDNALGWYRQAPGKERQLVAAISGGGGTYYADSVKGRFTISRDNAKNTVYLQMNSLKPEDTAVYYCATDRGHKWVFYVTYYRYESWGQGTQVTVSS,low polyreactivity
6,QVQLVESGGGLVQAGGSLRLSCDASGFIFYSYAMGWYRQAPGKERELVAGITSGGITSYADSVKGRFTISRDNAKNTVYLQMNSLKPEDTAVYYCAKDVRSYRISVYGVGYWGQGTQVTVSS,high polyreactivity
7,QVQLVESGGGLVQAGGSLRLSCDASGFNFASNDMGWYRPAPGKERELVAAITKGGGRTYYADSVKGRFTISRDNAKNTVYLQMNSLKPEDTAVYYCAARQLIKYDYWGQGTQVTVSS,low polyreactivity
8,QVQLVESGGGLVQAGGSLRLSCDASGFTFYSYARGWYRQAPGKEREFVASISRSGGSTYYADSVKGRFTISRDNAKYTVYLQMNSLKAEDTEVYYCAARSVRDRDGGDYWGQGTQVTVSS,high polyreactivity
9,QVQLVESGGGLVQAGGSLRLSCDASGGIFFYNTLRCSRQAPGKERELVAAITTNGDSTYYADSVKGRFTISRDNAKYTVYLQMNSLKPVDTAVYYCATPLELFASFSFSHYVYLFDSWGQGTQVNVSS,low polyreactivity
10,QVQLVESGGGLVQAGGSLRLSCDASGIIFKKYAMGWNRQAPGKERELVAVITRGGSTNYADSVKGRFTISRDNAKNTVYLQMNSLKPEDTAVYYCNADSGSYHGWYGGDYGGQGTQVTVSS,low polyreactivity
11,QVQLVESGGGLVQAGGSLRLSCDASGIILNINAMGWYRQAPGKERELVAAITSDGSTNYADSVKGRFTISRDNAKNTVYLQMNSLKPEDTAVYYCAVDLPWGTGVSQYPESDYWGQGTQVTVSS,low polyreactivity
12,QVQLVESGGGLVQAGGSLRLSCDASGITFASYAMGWYRQAPGKERELVAAISWGGSRTYYADSVKGRFTISRDNAKNTVYFQMNSLKPVDTAVYYCNAHTRYGPDYSYYYWGQGTQVTVSS,high polyreactivity
13,QVQLVESGGGLVQAGGSLRLSCDASGITFIRNGMGWYRQAPGKERELVAAISDTGARTYYADSVKGRFTISRDNAKNTVYLQMNSLKPEDTAVYYCAAEVRTRYLYSFRWDDYWGQGTQVTVSS,low polyreactivity
14,QVQLVESGGGLVQAGGSLRLSCDASGITFQYYAMGWYRQAPGKERELVAAINWRGGTTYYADSVKGRITISRDNAKNTVYLQMNSLIPEDNEVYYCAADYYYQAGFYYWGQGTQVTVSS,low polyreactivity
15,QVQLVESGGGLVQAGGSLRLSCDASGITQTVYAMGWYRQSPGKERELVAGIDWVGDTYADSVKGRFTISRDNAKNTVYLQMNSLKPEDTAVYYCAADNYSQGVPYDYWGQGSQVTVSS,low polyreactivity
16,QVQLVESGGGLVQAGGSLRLSCDASGLIFITYAMRWYRQAPGKERELVATITLRGGSTYYADSVKGRFTISRDNAKNTVYLQMNSLKPEDTAVYYCAAEVGYWGRSRGYPSDDYDYCGQGTQVTVSS,low polyreactivity

row,Sequence,polyreactivity (PSR sort gate)
1,QVQLVESGGGLVQAGGSLRLSCDASGLTFPYYTMGWYRQAPGKERELVADINGSGGSTYYADSVKGRFTISLDNAKNTFYLQMNSLKPEDTEVYYCAAGSWQVAISYDYWGQGTQVTVSS,low polyreactivity
2,QVQLVESGGGLVQAGGSLRLSCDASGNILPSNAMGWYRQAPGKERELVAAITWSVGRTYYADSVKGRFTISRDNAKNTVYLQMNSLKPEDTAVYYCNAQDTPYEGRYDESEYDYWGQGTQVTVSS,low polyreactivity
3,QVQLVESGGGLVQAGGSLRLSCDASGNTFSRYAMGWYRQAHGKERELVAAITSSGGSTYYADSVKGRFTISRDNAKNTVYLQMNSLKPEDTAVYYCAATSYYTREHYYYWGQGTQVTVSS,high polyreactivity
4,QVQLVESGGGLVQAGGSLRLSCDASGNTFVRYAMGWFRQAPGKERELVAGISASGGSTSYADSVKGRFTISRDNAKNTVYLQMNSLKPEDTAVYYCARNYWLYSSSYDSWGQGTQVTVSS,high polyreactivity
5,QVQLVESGGGLVQAGGSLRLSCDASGNTSSYYTMGWYRQAPGKERELGARISNRGTNTYYAESVKGRVTISRDNAKNTVYLQMNSLKPEDTAVYYCAALYWFYVYPFTEYDYWGQGTQVTVSS,low polyreactivity
6,QVQLVESGGGLVQAGGSLRLSCDASGRHFKRYDMGWYRQAPGKERELVAAISWSGTSTHYADSVKGRLTISRDNAKNTVYLQMNSLKPEDTAVYYCAAYWFNTSYPGRYDYWGQGTQVTVSS,high polyreactivity
7,QVQLVESGGGLVQAGGSLRLSCDASGRIFFNTMGWYRQAPGKERELVAAISSGGSTSYADSVKGRFTISRDNAKNTVYLQMNSLKPEDTAVYYCADLKLYIYDYWGQGTQVTVSS,high polyreactivity
8,QVQLVESGGGLVQAGGSLRLSCDASGRIFGLYDMGWYRQAPGKERELVAAISRGGGSTYYADSVKGRFTISRDNAKNTVYLQMNSLKPEDTAVYYCATGLGYFSRLDYWGQGTQVTVSS,low polyreactivity
9,QVQLVESGGGLVQAGGSLRLSCDASGRIFGYTMGWYIQAPGKERELVAAISKSGGSTYYADSVKGRFTISRDNAKNTVYLQMNSLKPEDTAVYYCNKPQRILYDYWGQGTQVTVSS,high polyreactivity
10,QVQLVESGGGLVQAGGSLRLSCDASGRIFHYNSMGWYRQAPGKERELVAAISTGGSTNYADSVKGRFTISRDNAKNTVYLQMNSLKPEDTAVYYCAADHPVTYPTSKFDYWGQGTQVTVSS,low polyreactivity
11,QVQLVESGGGLVQAGGSLRLSCDASGRIFNYYAMGWYRQAPGKERELVAAITWNGGNTYYADSVKGRFTISRDNAKNTVYLQMNSLKPEDTAVYYCNAYPWYPGDYWGQGTQVTVSS,high polyreactivity
12,QVQLVESGGGLVQAGGSLRLSCDASGRIFYNYAMGWYRQEPGKERELVAAISSSGGRTYYADSVKGRFTISRDKAKNTVYLQMNSLKPEDTAVYYCAADFHDASRPYGSWGQGTQVTVSS,low polyreactivity
13,QVQLVESGGGLVQAGGSLRLSCDASGRSFYPYSMGWYRQAPGKERELVAAIDWSDGSTYYADSVKGRFTISRDNAKNTFYLQMNSLKPEDTAVYYCSAEDYNYWSYDYWGQGTQVTVSS,low polyreactivity
14,QVQLVESGGGLVQAGGSLRLSCDASGRTFVVNAMGWYRQAPGKERELVAAITRRGGITYYADSVKGRFTISRDNAKNTVYLQMNSLKPEDTAVYYCAADRSYYPDTRTTYGYNYWGQGTQVTVSS,low polyreactivity
15,QVQLVESGGGLVQAGGSLRLSCDASGRTFYFYVMGWYRQAPGKERELVARISWSGGSTYYADSVKGRFTISRDNAKNTVYLQMNSLKPEDTAVYYCARQYKYPSSGEYDSWGQGTQVTVSS,low polyreactivity
16,QVQLVESGGGLVQAGGSLRLSCDASGSIFAKNAMGWYRQAPGKERELVAAIDLNGGSTYYADSVKGRFTISRDTAKNTVYLQMNILKPEDTAVYYCDVYYGHSCVIRSSPEYDSWGQGTQVTVSS,low polyreactivity
